The values below are quoted from earlier work in article PMC5035964.

Some targets named below: CD46 (Homo sapiens) (UniProt P15529); Nectin-4 (Homo sapiens) (UniProt Q96NY8); SLAMF1 (Homo sapiens) (UniProt Q13291).
UniProt Q96NY8, sequence (Q96NY8 32-510): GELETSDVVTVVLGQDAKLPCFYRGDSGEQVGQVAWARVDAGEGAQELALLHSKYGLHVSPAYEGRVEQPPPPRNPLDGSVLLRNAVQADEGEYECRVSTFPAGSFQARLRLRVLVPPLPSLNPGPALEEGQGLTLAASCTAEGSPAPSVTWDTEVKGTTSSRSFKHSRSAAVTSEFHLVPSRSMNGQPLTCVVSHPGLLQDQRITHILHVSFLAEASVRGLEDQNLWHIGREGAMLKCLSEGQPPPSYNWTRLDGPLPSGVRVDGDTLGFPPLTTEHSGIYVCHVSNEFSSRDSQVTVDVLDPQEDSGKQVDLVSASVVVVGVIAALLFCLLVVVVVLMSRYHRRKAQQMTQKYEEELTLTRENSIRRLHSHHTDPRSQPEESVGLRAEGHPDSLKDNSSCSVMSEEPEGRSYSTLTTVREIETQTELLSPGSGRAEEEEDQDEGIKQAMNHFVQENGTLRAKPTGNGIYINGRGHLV
UniProt P15529, sequence (P15529 35-392): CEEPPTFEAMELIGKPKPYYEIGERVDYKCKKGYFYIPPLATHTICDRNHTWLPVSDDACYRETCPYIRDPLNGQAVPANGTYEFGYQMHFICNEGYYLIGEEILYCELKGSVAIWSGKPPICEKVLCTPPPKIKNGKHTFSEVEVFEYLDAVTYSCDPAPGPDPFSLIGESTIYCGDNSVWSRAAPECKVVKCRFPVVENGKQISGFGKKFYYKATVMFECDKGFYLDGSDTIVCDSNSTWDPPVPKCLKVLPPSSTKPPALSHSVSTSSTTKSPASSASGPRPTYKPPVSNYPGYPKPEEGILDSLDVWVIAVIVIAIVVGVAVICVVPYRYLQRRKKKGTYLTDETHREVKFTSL
UniProt Q13291, sequence (Q13291 21-335): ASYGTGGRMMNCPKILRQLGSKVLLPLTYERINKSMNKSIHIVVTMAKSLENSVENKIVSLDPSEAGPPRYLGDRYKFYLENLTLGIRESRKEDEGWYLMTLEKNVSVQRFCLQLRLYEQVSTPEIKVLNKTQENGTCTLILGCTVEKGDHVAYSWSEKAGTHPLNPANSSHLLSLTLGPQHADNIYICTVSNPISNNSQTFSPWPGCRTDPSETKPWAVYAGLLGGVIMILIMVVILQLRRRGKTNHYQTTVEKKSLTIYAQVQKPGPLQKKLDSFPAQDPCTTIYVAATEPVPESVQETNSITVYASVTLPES

Consider “Measles virus hemagglutinin (H), Edmonston (from UniProt P08362)”, for which, in the data set with CD46 (Homo sapiens), the equilibrium dissociation constant (Kd) was 79 nM.

For “Measles virus hemagglutinin (H) (from UniProt P08362)”, the Kd was 20 nM with Nectin-4 (Homo sapiens) and 80 nM with SLAMF1 (Homo sapiens).

A word on the Kd: it is the equilibrium constant for the complex coming apart.
